Experiment: yeast display, Sf9 membrane polyspecificity reagent, FACS + sequencing; frameworks hold sequencing errors
Summary of the method: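 Polyreactivity labels are assigned by the sorting gate from which each nanobody was recovered. The gates were low and high (top ~1%), set on anti-HA fluorescence for expression and streptavidin fluorescence for reagent binding. Before sorting, galactose-induced (36–48 hours) yeast display cells were stained for 1 hour at 4 °C with 10% biotinylated, detergent-solubilized Sf9 membrane reagent.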
For “QVQLVESGGGLVQAGGSLRLSCAASGSIFNYYAMGWYRQAPGKERDLVAAITTSGGNTYYADSVKGRFTISRDNAKNTVYLLMYSLKPEDTAVYYCAADYWASGGEYDYWGQGTQVSVSS”, the “polyreactivity (PSR sort gate)” value was “low polyreactivity”. For “QVQLVESGGGLVQAGGSLRLSCAASGSIFPANAMGWYRQAPGKERELVAAISRRGGNTNYADSVKGRFTISRDNAKNTVYLQMNSLKPEDTAVYYCAAYYYYRRYDYWGQGTQVTVSS”, the “polyreactivity (PSR sort gate)” value was “high polyreactivity”. In the case of “QVQLVESGGGLVQAGGSLRLSCAASGSIFPANAMGWYRQAPGKEWEFVAAINWSTGTTYYADSVKGRFTIARDNAKNTVYLQMNRLKPEETPVYYCNASDQAKYDYWGQGTQVTVSS”, the “polyreactivity (PSR sort gate)” value is reported as “low polyreactivity”. In the case of “QVQLVESGGGLVQAGGSLRLSCAASGSIFPANAMGWYRQPPGKERELVAAISRRGGNTYYADSVKGRFTISRDNAKNTVYLQMNSLKPEDTAVYYCAAYYFYRRYDYWGQGTQVTVSS”, the “polyreactivity (PSR sort gate)” value is reported as “high polyreactivity”. For “QVQLVESGGGLVQAGGSLRLSCAASGSIFPAYAMGWYRQAPGKERELVASITGSGGSTYYADSVKGRFTISRDNAKNTVYLQMNSLKPEDTAVYYCNARYYVYSATVDRYYHFYYWGQGTQVTVSS”, the “polyreactivity (PSR sort gate)” value was “high polyreactivity”. With “QVQLVESGGGLVQAGGSLRLSCAASGSIFPAYTMGWYRQAPGKERELVAAIPYSGARSTYYADSVKGRVTNSRDNAKNTVYLQMNSLKPEDTAVYYCNARDRARYFYDMDYWGQGTQVTVSS” the “polyreactivity (PSR sort gate)” value was “low polyreactivity”. With “QVQLVESGGGLVQAGGSLRLSCAASGSIFPENAMGWYRQAPGKERELVAAITSSDSSTYYADSVKGRFTISRDNAKNTVYLHMNSLKPEDTAVYSCAAYRVGFRFREYYWGQGTQVTVSS” the “polyreactivity (PSR sort gate)” value was “low polyreactivity”. In the case of “QVQLVESGGGLVQAGGSLRLSCAASGSIFPENAMGWYRQAPGKERELVAAITSSDSSTYYADSVKGRFTISRDNAKNTVYLQMNSLKPEDTAVYYCAAYRVGFRFREYYWGQGTQVTVSS”, the “polyreactivity (PSR sort gate)” value is reported as “low polyreactivity”. With “QVQLVESGGGLVQAGGSLRLSCAASGSIFPFNAMGCYRQAPGKERELVAAISYSGGSTYYADSVKGRFTISRDNAKNTVYLQMTRLKPEDTAVYYCNRLLRRHLYIFYYWGQGTLVTVSS” the “polyreactivity (PSR sort gate)” value was “high polyreactivity”. For “QVQLVESGGGLVQAGGSLRLSCAASGSIFPFNAMGWYRQAPGKERELVAAISRRGTGTYYADSVKGRFTISRDNAKNTVYLQMNSLKPEDTAVYYCNAVVRAGHYDYWGQGTQVTLSS”, the “polyreactivity (PSR sort gate)” value was “high polyreactivity”. With “QVQLVESGGGLVQAGGSLRLSCAASGSIFPFYAMGWFRQAPGKERELVAAISWSGGSTYYADSVKGRFTISRDNAKNTVYLQMNSLKPEDTAVYYCNRADGYSFSLNRSDYWGQGTQVTVSS” the “polyreactivity (PSR sort gate)” value was “low polyreactivity”. For “QVQLVESGGGLVQAGGSLRLSCAASGSIFPFYAMGWYRQAPGKERELVATISWSGGRTYYADSVKGRFTISRDNAKYTVDLQMNTLKPEDTAVYYCAAGSYHYPNAYYYWGQGTQVTVSS”, the “polyreactivity (PSR sort gate)” value was “high polyreactivity”. With “QVQLVESGGGLVQAGGSLRLSCAASGSIFPGYAMAWYRQAPGKERELVAAISRSGGITYYADSVKGRFTISRDNAKNTVYLQMNSLKPEDTSVYYCAKTLPSNGHYDYWGQGTQVTVSS” the “polyreactivity (PSR sort gate)” value was “low polyreactivity”. In the case of “QVQLVESGGGLVQAGGSLRLSCAASGSIFPGYAMGWYRQAPGKERELVAAIDRSGGSTYYADSVKGRFTISRDNAKNTVYLQMNSLKPEDTAVYYCNRVFTWRYGYRYEYWGQGTQVTVSS”, the “polyreactivity (PSR sort gate)” value is reported as “high polyreactivity”. In the case of “QVQLVESGGGLVQAGGSLRLSCAASGSIFPGYAMGWYRQAPGKERELVATITWSGGSTYYADSVKGRFTISRDNAKNTVYLQMISLKTEDTAVYYCNADSNCYYQWNYYGLYDYWGQGTQVTVSS”, the “polyreactivity (PSR sort gate)” value is reported as “low polyreactivity”. In the case of “QVQLVESGGGLVQAGGSLRLSCAASGSIFPGYAMGWYRQAPGKERELVATITWSGGSTYYADSVKGRFTISRDNAKNTVYLQMNSLIPEDTAVYYCNADSNWYYQWNYYGLYDYWGQGTQVTVSS”, the “polyreactivity (PSR sort gate)” value is reported as “low polyreactivity”. For “QVQLVESGGGLVQAGGSLRLSCAASGSIFPGYAMGWYRQAPGKERELVATITYSDGSTYYADSVKGRFTISRDNAKNTVYLQMNSLKPEDTAVYYCAVTYWWYYGYDYWGQGTQVTVSS”, the “polyreactivity (PSR sort gate)” value was “low polyreactivity”. With “QVQLVESGGGLVQAGGSLRLSCAASGSIFPGYSMGWCRQAPGKERELVAAISISGGDTYYADSVKGRFTISRDNAKNTGYFQMNSLKPEDTSVYHCNKEDDDREWFEYYWWYDYWGQGTQVTVTS” the “polyreactivity (PSR sort gate)” value was “high polyreactivity”. For “QVQLVESGGGLVQAGGSLRLSCAASGSIFPGYVMGWYRQAPGTERELVAAISWSGGSTYYADSVKGRFTISRDNAMNTVYLQLNSLKPEDTAVYYWAADYSYYHGPSRHKHDYWGQGTQVTVSS”, the “polyreactivity (PSR sort gate)” value was “low polyreactivity”. In the case of “QVQLVESGGGLVQAGGSLRLSCAASGSIFPIYAMGWYRQAPGKERELVAAINRSGGSTYYADSVKGRFTISRDNAKNTVYLQMNSLKPEDTAVYYCNADYGYHNQLFWGYYGWSSDHWGQGTQVTVSS”, the “polyreactivity (PSR sort gate)” value is reported as “low polyreactivity”. In the case of “QVQLVESGGGLVQAGGSLRLSCAASGSIFPIYAMGWYRQAPGKERELVAAITRSDGSTYYADSVKGRFTISRDNAKNTVYLQMNSLNPEDTAVYYCGDYGYWGQGTQVTVSS”, the “polyreactivity (PSR sort gate)” value is reported as “low polyreactivity”. With “QVQLVESGGGLVQAGGSLRLSCAASGSIFPIYAWGWYRQAPGKERELVAAISGSGARTYYSDSVKGRFTISRDNAKNTVYLQMNSLKPEDTAVYYCNAKYGYDSEARIVKPVRYDYWGQGTQVTVSS” the “polyreactivity (PSR sort gate)” value was “high polyreactivity”. For “QVQLVESGGGLVQAGGSLRLSCAASGSIFPIYTMGWYRQAPGKERELVAAITYNAGSTYYADSVKGRFTISRDNAKNTVYLQMNSLKPEDTAVYYCAADRYYDRTFPGYDYWGQGTQVTVSS”, the “polyreactivity (PSR sort gate)” value was “low polyreactivity”. For “QVQLVESGGGLVQAGGSLRLSCAASGSIFPKYAMGWYRQAPGKERELVAAISRGGGSTYYADSVKGRFTISRDNAKNTVYLQMNSLKPEDTAVYYCAALFTPALSEYDYWGQGTQVTVSS”, the “polyreactivity (PSR sort gate)” value was “high polyreactivity”. With “QVQLVESGGGLVQAGGSLRLSCAASGSIFPLNAMGWYRQSPGKERELVATISWRGGITYYADSVKGRFTISRDNAKNTVYLQMNSLKPEDTAVYYCATVGRWNSLWYRYRYDYWGQGTQVTVSS” the “polyreactivity (PSR sort gate)” value was “low polyreactivity”. With “QVQLVESGGGLVQAGGSLRLSCAASGSIFPLYDMGWSRQATGKQSELVASITSGDTTNYADSVKGRFTISRDNAKNTVYLQMISLNAEDTAVYYCATDTPTDRYAAYPNDQYYYWGQGTQVTVSS” the “polyreactivity (PSR sort gate)” value was “low polyreactivity”. With “QVQLVESGGGLVQAGGSLRLSCAASGSIFPPNAMGWYRQAPGKERELVAGISQSGGSTYYADSVKGRFTISRDNAKNTVYLQMNSLKPEDTAVYYCARRSRVGYPLDSWGQGTQVTVSS” the “polyreactivity (PSR sort gate)” value was “high polyreactivity”. With “QVQLVESGGGLVQAGGSLRLSCAASGSIFPPYAMGWYRQAPGKERELVASISNSGGSTYYADSVKGRFTISRDNAKNTVYLQMNSLKPEDTAVYYCAAYAVVSPSFTYGYWGQGTQVTVSS” the “polyreactivity (PSR sort gate)” value was “high polyreactivity”. In the case of “QVQLVESGGGLVQAGGSLRLSCAASGSIFPQYAMGWYRQAPGKERELVAGISGSGGGTYYADSVKGRFTISRDNAKNTVYLQMNSLKPEDTAVYDCYDYWGQGTQVTVSS”, the “polyreactivity (PSR sort gate)” value is reported as “low polyreactivity”. For “QVQLVESGGGLVQAGGSLRLSCAASGSIFPRNAMGWYRQAPGKERELVAGISSGGSTNYADSVKGRFTISRDNAKNTVYLQMNSLNPEDTAVYYCAARQWIRNLGFGYSIYNYWGQGTQVTVSS”, the “polyreactivity (PSR sort gate)” value was “high polyreactivity”. In the case of “QVQLVESGGGLVQAGGSLRLSCAASGSIFPRYAMGWYRQAPGKERELVAAISWSGGSTYYADSVKGRFTISRDNAKNTFYLQMNSLKPEDTAVYYCAALSKHVQVAYDPWGQGTQVTVSS”, the “polyreactivity (PSR sort gate)” value is reported as “high polyreactivity”. For “QVQLVESGGGLVQAGGSLRLSCAASGSIFPRYAMGWYRQAPGKERELVAAITGSGSSTYYADSVKGRFTISRDNAKNTVYLQMNSLKPEDTAVYYCAALYGPGREYDYWGQGTQVTVSS”, the “polyreactivity (PSR sort gate)” value was “low polyreactivity”. In the case of “QVQLVESGGGLVQAGGSLRLSCAASGSIFPSNVMGWYRQAPGKERELVAAISTTGSTYYADSVKGRFTISRDNAKNTVYLQMNSLKTEDTAVYDCAAEYWSYAHGGQLYGYDYWGQGTQVTVSS”, the “polyreactivity (PSR sort gate)” value is reported as “low polyreactivity”. For “QVQLVESGGGLVQAGGSLRLSCAASGSIFPVYAMGWYRPAPGKERELVAAISWIGGGTYYADSVKGRFTISRDNAKNTVYLQKHSLKPEDTAVYDCAAVPYTSEYDYWGQGTEVTVSS”, the “polyreactivity (PSR sort gate)” value was “high polyreactivity”. For “QVQLVESGGGLVQAGGSLRLSCAASGSIFPVYAMGWYRQAPGKEREFVARIRFSGGRTYYADSVKGRFTISRDNAKNTVYLQMNSLKPEDTAVYYCAKAQYRGRYGYWGQGTQVTVSS”, the “polyreactivity (PSR sort gate)” value was “high polyreactivity”. With “QVQLVESGGGLVQAGGSLRLSCAASGSIFPVYAMGWYRQAPGKERELVATIRSGGARTYYADSVKGRFTISRDNAKNTVYLQMNSLKPEDTAVYYCAVDQSRWQARYYYWGQGTQVTVSS” the “polyreactivity (PSR sort gate)” value was “high polyreactivity”. In the case of “QVQLVESGGGLVQAGGSLRLSCAASGSIFPVYTMGWYRQAPGKEREFVATITISGAITYYADSVKGRFTISRDNAKNSVYLQMNSLKPEDTAVYYCNTGPISYPANDYWGQGTQVTVSS”, the “polyreactivity (PSR sort gate)” value is reported as “low polyreactivity”. With “QVQLVESGGGLVQAGGSLRLSCAASGSIFPVYTMGWYRQAPWKERELVAAITKTGGSTYYADSVKGRFTISRDNAKNTVYLQMNILIPEDTAVYYCAKPATYYELDYWGQGTQVNVSS” the “polyreactivity (PSR sort gate)” value was “low polyreactivity”. With “QVQLVESGGGLVQAGGSLRLSCAASGSIFPWNAMGWYRQAPGKERELVAAISRGGSTNYADSVKGRFTISRDNAKNTVYLQMNSLKPEDTAVYYCAVYYYSYHWGRGYDYWGQGTQVTVSS” the “polyreactivity (PSR sort gate)” value was “high polyreactivity”. In the case of “QVQLVESGGGLVQAGGSLRLSCAASGSIFPYNAMGWYRQAPGKERELVATISSGGSTNYADSVKGRFTISRDNAKNTVYLQMKSLKPADTAVYYCAADVIVFFSAPNYWGDIEYGYWGQGTQVTVSS”, the “polyreactivity (PSR sort gate)” value is reported as “low polyreactivity”. For “QVQLVESGGGLVQAGGSLRLSCAASGSIFPYNAMGWYRQAPGKERELVATISSGGSTNYADSVKGRFTISRDNAKNTVYLQMNSLKPEDTAVYYCAADVIVFYYAPNYWVDIEYGYWGQGTQVTVSS”, the “polyreactivity (PSR sort gate)” value was “low polyreactivity”. With “QVQLVESGGGLVQAGGSLRLSCAASGSIFPYNAMGWYRQERGNERELVAAISISGGSTYYADSVKGRFTISRDNAKNTVYFQMNSLKPEDTAVYYCAARQTLSSAFDYWGQGTQVTVSS” the “polyreactivity (PSR sort gate)” value was “low polyreactivity”. In the case of “QVQLVESGGGLVQAGGSLRLSCAASGSIFPYVNAMGWYRQAPGKERELVASIPGGGGTKYADSVKGRFTISRDNAKNTVYLQMNSLKPEDTAVYYCNATSGNPASTARMNYWGQGTQVTVSS”, the “polyreactivity (PSR sort gate)” value is reported as “low polyreactivity”.

— the nanobody polyreactivity screen of Harvey et al. (2022)
